Assay results reported in publication PMC3642871 (Biochemistry, 2008).

B1: ΔC10 huMIF(1-104) (domain or fragment, human, UniProt P14174 2-105, looked up)
chain: PMFIVNTNVPRASVPDGFLSELTQQLAQATGKPPQYIAVHVVPDQLMAFGGSSEPCALCSLHSIGKIGGAQNRSYSKLLCGLLAERLRISPDRVYINYYDMNAA
B2: Recombinant, soluble huMIF receptor ectodomain (sCD74 73-232) (domain or fragment, UniProt P04233-2 73-232, looked up)
chain: QQQGRLDKLTVTSQNLQLENLRMKLPKPPKPVSKMRMATPLLMQALPMGALPQGPMQNATKYGNMTEDHVMHLLQNADPLKVYPPLKGSFPENLRHLKNTMETIDWKVFESWMHHWLLFEMSRHSLEQKPTDAPPKESLELEDPSSGLGVTKQDLGPVPM
B3: P107 huMIF (natural protein, human, UniProt P14174 2-115, looked up)
chain: PMFIVNTNVPRASVPDGFLSELTQQLAQATGKPPQYIAVHVVPDQLMAFGGSSEPCALCSLHSIGKIGGAQNRSYSKLLCGLLAERLRISPDRVYINYYDMNAANVPGWNNSTFA
B4: ΔC5 huMIF(1-109) (domain or fragment, human, UniProt P14174 2-110, looked up)
chain: PMFIVNTNVPRASVPDGFLSELTQQLAQATGKPPQYIAVHVVPDQLMAFGGSSEPCALCSLHSIGKIGGAQNRSYSKLLCGLLAERLRISPDRVYINYYDMNAANVGWN

Assays:
[1] = molecular target: B2; test: ELISA
AUC = molecular target: the molecule itself; test: AUC
Biotinylated huMIF = Biotinylated huMIF (human, UniProt P14174 2-115, biotin (sites not given)); test: ELISA

Row | binding result [1] | binding result (Biotinylated huMIF) | Binder | stoichiometry N (AUC)
1 | binds |  | B1 | 3
2 |  | binds | B2 | 
3 |  |  | B3 | 3
4 | binds |  | B4 | 3
